Our source for the Kd, koff and kon values is article PMC12192683.

The assay deals with low-density lipoprotein receptor-related protein 1 (LRP1), full-length, purified from human placenta (human) (UniProt Q07954). Put plainly: SPR; Biacore 3000; receptor amine-coupled to CM5 chip; ligand flowed in HBS-P (0.01 M HEPES pH 7.4, 0.15 M NaCl, 0.005% P20) with 1 mM CaCl2, 10 ul/min, 25 C; kinetic fit to a 1:1 Langmuir model. (In general: SPR reads the build-up and loss of mass on a sensor chip optically.)
Chain of low-density lipoprotein receptor-related protein 1 (LRP1), full-length, purified from human placenta (human) (Q07954 20-4544): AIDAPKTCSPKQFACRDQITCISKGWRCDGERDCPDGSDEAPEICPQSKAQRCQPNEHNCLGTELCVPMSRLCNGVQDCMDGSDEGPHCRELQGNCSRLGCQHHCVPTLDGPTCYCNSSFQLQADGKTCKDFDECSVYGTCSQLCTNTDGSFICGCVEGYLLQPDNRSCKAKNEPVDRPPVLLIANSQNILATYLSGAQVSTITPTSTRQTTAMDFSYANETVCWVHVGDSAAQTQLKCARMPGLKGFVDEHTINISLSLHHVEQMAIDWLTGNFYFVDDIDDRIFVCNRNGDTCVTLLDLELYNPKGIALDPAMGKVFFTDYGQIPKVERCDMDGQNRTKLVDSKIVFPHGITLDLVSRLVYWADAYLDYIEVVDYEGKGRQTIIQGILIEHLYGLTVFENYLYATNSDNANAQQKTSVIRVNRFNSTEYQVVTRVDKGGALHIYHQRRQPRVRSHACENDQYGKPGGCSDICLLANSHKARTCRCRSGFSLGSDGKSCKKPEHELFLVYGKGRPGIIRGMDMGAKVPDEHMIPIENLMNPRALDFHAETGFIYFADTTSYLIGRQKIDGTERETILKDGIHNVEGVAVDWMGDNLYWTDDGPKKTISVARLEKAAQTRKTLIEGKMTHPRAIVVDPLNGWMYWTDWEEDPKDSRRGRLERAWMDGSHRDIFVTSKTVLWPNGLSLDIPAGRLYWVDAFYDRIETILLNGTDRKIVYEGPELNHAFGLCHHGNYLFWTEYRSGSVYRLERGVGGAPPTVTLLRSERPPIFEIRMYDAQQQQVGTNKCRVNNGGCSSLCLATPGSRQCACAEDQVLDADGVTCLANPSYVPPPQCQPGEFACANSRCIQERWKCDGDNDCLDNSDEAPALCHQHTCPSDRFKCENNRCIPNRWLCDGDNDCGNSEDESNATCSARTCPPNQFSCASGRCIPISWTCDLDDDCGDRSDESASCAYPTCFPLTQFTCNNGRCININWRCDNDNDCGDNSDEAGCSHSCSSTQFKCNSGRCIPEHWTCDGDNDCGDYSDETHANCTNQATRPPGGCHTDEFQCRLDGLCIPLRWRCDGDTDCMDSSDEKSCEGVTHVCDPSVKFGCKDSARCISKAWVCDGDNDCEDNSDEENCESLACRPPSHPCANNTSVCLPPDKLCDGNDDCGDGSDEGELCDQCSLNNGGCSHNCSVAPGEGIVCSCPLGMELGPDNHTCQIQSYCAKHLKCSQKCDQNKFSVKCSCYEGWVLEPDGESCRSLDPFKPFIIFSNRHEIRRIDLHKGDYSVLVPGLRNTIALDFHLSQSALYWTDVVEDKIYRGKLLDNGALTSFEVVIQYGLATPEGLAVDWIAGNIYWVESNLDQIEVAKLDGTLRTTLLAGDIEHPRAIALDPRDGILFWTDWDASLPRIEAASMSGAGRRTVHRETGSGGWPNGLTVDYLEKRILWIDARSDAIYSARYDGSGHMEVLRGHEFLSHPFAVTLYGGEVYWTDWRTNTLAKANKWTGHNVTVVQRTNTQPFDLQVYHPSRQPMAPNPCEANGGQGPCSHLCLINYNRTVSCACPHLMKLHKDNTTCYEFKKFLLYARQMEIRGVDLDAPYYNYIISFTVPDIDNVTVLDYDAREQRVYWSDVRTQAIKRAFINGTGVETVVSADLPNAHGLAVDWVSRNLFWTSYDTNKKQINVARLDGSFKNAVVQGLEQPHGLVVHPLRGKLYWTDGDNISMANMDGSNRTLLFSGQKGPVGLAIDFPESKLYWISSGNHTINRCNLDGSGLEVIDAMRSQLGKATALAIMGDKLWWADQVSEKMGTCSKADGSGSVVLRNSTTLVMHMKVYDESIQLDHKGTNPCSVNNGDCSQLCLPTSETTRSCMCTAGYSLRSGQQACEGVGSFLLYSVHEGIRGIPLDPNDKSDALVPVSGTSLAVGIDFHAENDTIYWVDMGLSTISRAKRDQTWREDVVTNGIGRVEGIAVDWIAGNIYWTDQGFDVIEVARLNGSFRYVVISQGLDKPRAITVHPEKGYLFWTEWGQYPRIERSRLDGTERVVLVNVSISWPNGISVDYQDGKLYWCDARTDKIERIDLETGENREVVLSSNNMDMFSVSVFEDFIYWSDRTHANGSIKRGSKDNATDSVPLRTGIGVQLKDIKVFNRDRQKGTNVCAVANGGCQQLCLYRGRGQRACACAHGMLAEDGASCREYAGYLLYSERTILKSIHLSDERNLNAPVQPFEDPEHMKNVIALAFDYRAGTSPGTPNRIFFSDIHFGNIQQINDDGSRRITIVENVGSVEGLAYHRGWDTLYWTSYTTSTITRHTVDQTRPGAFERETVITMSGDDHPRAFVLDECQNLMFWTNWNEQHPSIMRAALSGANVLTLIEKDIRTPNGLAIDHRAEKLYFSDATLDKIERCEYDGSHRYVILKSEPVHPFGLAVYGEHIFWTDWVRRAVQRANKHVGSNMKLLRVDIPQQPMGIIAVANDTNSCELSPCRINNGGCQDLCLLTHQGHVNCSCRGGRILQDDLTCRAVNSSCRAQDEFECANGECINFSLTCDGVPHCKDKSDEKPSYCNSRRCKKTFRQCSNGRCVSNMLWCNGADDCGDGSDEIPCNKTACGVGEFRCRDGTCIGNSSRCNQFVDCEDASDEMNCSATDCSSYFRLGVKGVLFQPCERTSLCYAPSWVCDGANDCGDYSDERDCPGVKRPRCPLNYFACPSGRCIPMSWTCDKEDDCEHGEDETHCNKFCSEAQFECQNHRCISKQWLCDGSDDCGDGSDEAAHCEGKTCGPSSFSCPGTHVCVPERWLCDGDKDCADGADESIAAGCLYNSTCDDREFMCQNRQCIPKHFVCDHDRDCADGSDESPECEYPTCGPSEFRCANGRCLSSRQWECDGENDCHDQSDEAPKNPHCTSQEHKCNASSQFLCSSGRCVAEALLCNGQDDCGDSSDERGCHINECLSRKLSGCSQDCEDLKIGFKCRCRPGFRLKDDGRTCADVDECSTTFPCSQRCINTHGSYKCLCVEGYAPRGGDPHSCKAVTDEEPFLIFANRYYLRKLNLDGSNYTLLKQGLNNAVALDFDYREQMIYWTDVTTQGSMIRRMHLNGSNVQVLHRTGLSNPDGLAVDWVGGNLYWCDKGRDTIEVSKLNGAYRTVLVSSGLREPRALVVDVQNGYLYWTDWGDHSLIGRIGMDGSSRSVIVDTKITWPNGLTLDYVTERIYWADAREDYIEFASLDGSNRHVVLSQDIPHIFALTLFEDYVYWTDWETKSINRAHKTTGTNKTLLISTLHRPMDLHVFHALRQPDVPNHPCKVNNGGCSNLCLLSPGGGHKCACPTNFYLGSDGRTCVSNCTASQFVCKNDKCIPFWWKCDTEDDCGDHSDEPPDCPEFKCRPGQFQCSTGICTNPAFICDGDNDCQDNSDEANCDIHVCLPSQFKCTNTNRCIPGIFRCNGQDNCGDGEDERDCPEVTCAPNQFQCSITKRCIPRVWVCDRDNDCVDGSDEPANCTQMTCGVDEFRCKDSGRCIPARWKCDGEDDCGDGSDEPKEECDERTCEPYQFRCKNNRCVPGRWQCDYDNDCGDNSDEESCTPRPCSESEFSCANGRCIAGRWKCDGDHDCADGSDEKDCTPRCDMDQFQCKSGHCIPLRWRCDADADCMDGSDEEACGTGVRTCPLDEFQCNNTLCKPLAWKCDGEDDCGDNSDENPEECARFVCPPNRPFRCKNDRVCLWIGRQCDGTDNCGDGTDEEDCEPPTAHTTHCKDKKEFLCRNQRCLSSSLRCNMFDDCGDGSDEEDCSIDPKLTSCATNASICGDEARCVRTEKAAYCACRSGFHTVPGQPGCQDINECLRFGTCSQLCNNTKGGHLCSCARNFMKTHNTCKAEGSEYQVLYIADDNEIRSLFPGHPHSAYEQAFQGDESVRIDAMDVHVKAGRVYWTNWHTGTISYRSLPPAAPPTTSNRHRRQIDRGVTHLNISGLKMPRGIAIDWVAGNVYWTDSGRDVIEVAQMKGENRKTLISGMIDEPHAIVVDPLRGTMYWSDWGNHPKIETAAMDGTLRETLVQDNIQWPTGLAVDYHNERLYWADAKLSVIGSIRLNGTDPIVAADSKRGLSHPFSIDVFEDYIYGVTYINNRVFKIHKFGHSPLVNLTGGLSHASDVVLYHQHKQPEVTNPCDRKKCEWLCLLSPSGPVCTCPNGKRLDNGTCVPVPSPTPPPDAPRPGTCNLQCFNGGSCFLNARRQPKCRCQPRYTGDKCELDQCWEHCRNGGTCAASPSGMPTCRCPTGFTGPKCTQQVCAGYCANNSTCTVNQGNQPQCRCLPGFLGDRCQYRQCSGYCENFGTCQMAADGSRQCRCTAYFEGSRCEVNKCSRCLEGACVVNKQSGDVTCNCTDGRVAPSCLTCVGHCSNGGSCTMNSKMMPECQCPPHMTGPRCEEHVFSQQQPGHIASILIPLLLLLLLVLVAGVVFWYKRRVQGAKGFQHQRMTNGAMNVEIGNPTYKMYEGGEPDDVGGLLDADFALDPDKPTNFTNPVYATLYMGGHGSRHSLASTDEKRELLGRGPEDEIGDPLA

One may read the Kd as the concentration at which binding is half-saturated. As a reminder, the koff is the first-order rate constant of dissociation. What is called kon is a measure of how fast the partners come together. Low readings indicate slow association, high ones fast association. Take “SARS-CoV-2 trimeric spike protein, stabilized in prefusion conformation (from UniProt P0DTC2 14-1273) (natural protein)”: the Kd is 72 nM, the koff is 0.00034 s⁻¹ and the kon stood at 4800 M⁻¹ s⁻¹.
